According to paper PMC8655031, “Loss of peptidase D binding restores the tumor suppressor functions of oncogenic p53 mutants” (Communications Biology, 2021):

Columns and labels:
[1] = target: the molecule itself; assay: cross-linking; PEPD (801 nM) and p53 or p53^R175H (114 nM), alone or together, in PBS pH 7.4 for 15 min at RT, then 2 mM BS3 for 30 min at RT; WB on 5% SDS-PAGE
[2] = target: T1, recombinant human p53, N-terminal His tagged (human, UniProt P04637 1-393); assay: as above; conditions: both partners purified
T1 construct: human p53 from pET15b-His-human p53; also called His-human p53; source: E. coli BL21-AI, purified (Ni-NTA)

B1: recombinant human PEPD (peptidase D), C-terminal His tagged (enzyme, UniProt P12955 1-493, looked up)
chain: MAAATGPSFWLGNETLKVPLALFALNRQRLCERLRKNPAVQAGSIVVLQGGEETQRYCTDTGVLFRQESFFHWAFGVTEPGCYGVIDVDTGKSTLFVPRLPASHATWMGKIHSKEHFKEKYAVDDVQYVDEIASVLTSQKPSVLLTLRGVNTDSGSVCREASFDGISKFEVNNTILHPEIVECRVFKTDMELEVLRYTNKISSEAHREVMKAVKVGMKEYELESLFEHYCYSRGGMRHSSYTCICGSGENSAVLHYGHAGAPNDRTIQNGDMCLFDMGGEYYCFASDITCSFPANGKFTADQKAVYEAVLRSSRAVMGAMKPGVWWPDMHRLADRIHLEELAHMGILSGSVDAMVQAHLGAVFMPHGLGHFLGIDVHDVGGYPEGVERIDEPGLRSLRTARHLQPGMVLTVEPGIYFIDHLLDEALADPARASFLNREVLQRFRGFGGVRIEEDVVVTDSGIELLTCVPRTVEEIEACMAGCDKAFTPFSGPK
notes: human peptidase D (PEPD, prolidase), from pBAD/TOPO-human PEPD-His; the discussion speaks of PEPD as 493 aa; also called prolidase; PEPD-His; source: E. coli One Shot TOP10, purified (Ni-NTA)
- stoichiometry N [1]: 2
- stoichiometry N [2]: 1 PEPD dimer per p53 tetramer
